Consider 62 sequences from the supplement of paper PMC9112550, “Optimization of the antimicrobial peptide Bac7 by deep mutational scanning” (BMC Biology, 2022).

In the data set the test system is Escherichia coli TOP10. The data set is described as follows: shrunken log2 fold change of peptide-encoding DNA abundance (4.5 h post-induction vs induction); higher = less antimicrobial activity (less host growth inhibition). The note with it: time post-induction: 4.5 h; library: site-saturation at positions 5, 18, 19, 20.
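Note: peptides expressed intracellularly from a pBAD plasmid library in pooled LB shake-flask culture, induced with 0.3% L-arabinose, DNA abundance read by NGS, three biological replicates, DESeq2 with apeglm shrinkage.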

Consider RRIRIRPPRLPRPRPRPPIIPRP, for which the “shrunken log2 fold change” value is -0.0124.

On to RRIRTRPPRLPRPRPRPYEDPRP, for which the “shrunken log2 fold change” value was -0.0155.

For the sequence RRIRCRPPRLPRPRPRPTDCPRP, the “shrunken log2 fold change” value is 0.0318. With RRIRLRPPRLPRPRPRPDCCPRP the figure was 0.0778; with RRIRPRPPRLPRPRPRPWGAPRP, 0.738.

Take RRIRTRPPRLPRPRPRPSKAPRP: the “shrunken log2 fold change” value was -0.0453. Next, RRIRRRPPRLPRPRPRPWCFPRP: -0.0808; RRIRCRPPRLPRPRPRPHSFPRP: -0.404; RRIRKRPPRLPRPRPRPADIPRP: -0.075. In the case of RRIRLRPPRLPRPRPRPRVCPRP, the “shrunken log2 fold change” value came to 0.0558. With RRIRWRPPRLPRPRPRPQCWPRP the figure was 0.0793; with RRIRFRPPRLPRPRPRPQAYPRP, -0.0572. RRIRSRPPRLPRPRPRPKIWPRP: the “shrunken log2 fold change” value is 0.141.

On to RRIRRRPPRLPRPRPRPPQRPRP, for which the “shrunken log2 fold change” value worked out at 1.64. With RRIRWRPPRLPRPRPRPCYHPRP the figure was -0.123. For RRIRIRPPRLPRPRPRPRNTPRP, the “shrunken log2 fold change” value is -0.208. Next, RRIRCRPPRLPRPRPRPIFLPRP: -0.257.

As to RRIRIRPPRLPRPRPRPVSSPRP, the “shrunken log2 fold change” value is -0.213. With RRIRGRPPRLPRPRPRPENWPRP the figure was 0.594; with RRIRPRPPRLPRPRPRPPHNPRP, 0.242; with RRIRLRPPRLPRPRPRPHNNPRP, -0.847. For the sequence RRIRSRPPRLPRPRPRPWHFPRP, the “shrunken log2 fold change” value was -0.0226. Next, RRIRERPPRLPRPRPRPMRYPRP: 0.000213.

For the sequence RRIRARPPRLPRPRPRPCNCPRP, the “shrunken log2 fold change” value turned out to be 0.00702. With RRIRFRPPRLPRPRPRPMFEPRP the figure was -0.0233; with RRIRHRPPRLPRPRPRPVVVPRP, -0.149; with RRIRIRPPRLPRPRPRPTILPRP, -0.248. Next, RRIRFRPPRLPRPRPRPRPEPRP: 0.477. Next, RRIRFRPPRLPRPRPRPTHPPRP: -0.0806; RRIRGRPPRLPRPRPRPLIMPRP: 0.206. As to RRIRSRPPRLPRPRPRPMDDPRP, the “shrunken log2 fold change” value was -0.0393. With RRIRVRPPRLPRPRPRPNMAPRP the figure was -0.38.

With RRIRMRPPRLPRPRPRPFTMPRP, the “shrunken log2 fold change” value was -0.55.

As for RRIRHRPPRLPRPRPRPHKNPRP, the “shrunken log2 fold change” value is -0.263.

RRIRCRPPRLPRPRPRPNVRPRP: the “shrunken log2 fold change” value is -0.000423.

On to RRIRARPPRLPRPRPRPIHGPRP, for which the “shrunken log2 fold change” value was -0.208. In the case of RRIRGRPPRLPRPRPRPWPCPRP, the “shrunken log2 fold change” value turned out to be 0.373. Take RRIRFRPPRLPRPRPRPEWIPRP: the “shrunken log2 fold change” value was -0.0219. Next, RRIRRRPPRLPRPRPRPEGWPRP: 3.17; RRIRNRPPRLPRPRPRPKQIPRP: -0.294.

Regarding RRIRTRPPRLPRPRPRPVLSPRP, the “shrunken log2 fold change” value was -0.328. With RRIRTRPPRLPRPRPRPWWSPRP the figure was -0.143.

Take RRIRNRPPRLPRPRPRPSVVPRP: the “shrunken log2 fold change” value was -0.0462. Next, RRIRVRPPRLPRPRPRPFTKPRP: -0.79; RRIRGRPPRLPRPRPRPSWPPRP: 0.384.

With RRIRLRPPRLPRPRPRPNAYPRP, the “shrunken log2 fold change” value is 0.0618. Next, RRIRTRPPRLPRPRPRPHTHPRP: -0.873; RRIRDRPPRLPRPRPRPQCWPRP: 0.0162.

Turning to RRIRPRPPRLPRPRPRPNIAPRP, the “shrunken log2 fold change” value was 0.225. With RRIRQRPPRLPRPRPRPMPAPRP the figure was 0.178. Regarding RRIRQRPPRLPRPRPRPEDYPRP, the “shrunken log2 fold change” value was -0.0734. Next, RRIRFRPPRLPRPRPRPSMHPRP: -0.291. RRIRQRPPRLPRPRPRPCEKPRP: the “shrunken log2 fold change” value was -0.00192. With RRIRMRPPRLPRPRPRPKTHPRP the figure was 0.612; with RRIRLRPPRLPRPRPRPFAAPRP, 0.281.

Take RRIRPRPPRLPRPRPRPVFSPRP: the “shrunken log2 fold change” value is -0.00413.

As for RRIRYRPPRLPRPRPRPVDDPRP, the “shrunken log2 fold change” value was -0.443. Next, RRIRRRPPRLPRPRPRPQIPPRP: 0.00964; RRIRFRPPRLPRPRPRPDVPPRP: -0.356; RRIRQRPPRLPRPRPRPPALPRP: -0.179. As for RRIRARPPRLPRPRPRPMWRPRP, the “shrunken log2 fold change” value was determined as 0.248. Next, RRIRHRPPRLPRPRPRPERHPRP: 0.0281.
